Results reported in patent US20230357838, “Double-Stranded DNA Deaminases and Uses Thereof” (New England Biolabs, Inc., published 2023).

Legend:
Experiment in all cases: cell-based or functional assay
LbsDa01 = biological target: T1, LbsDa01 (Simiaoa sunii)
T1 chain: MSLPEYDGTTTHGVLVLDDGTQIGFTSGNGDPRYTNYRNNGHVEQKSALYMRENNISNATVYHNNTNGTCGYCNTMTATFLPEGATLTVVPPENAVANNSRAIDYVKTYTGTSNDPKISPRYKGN

MGYPDa23 = biological target: T2, MGYPDa23 (unidentified)
T2 chain: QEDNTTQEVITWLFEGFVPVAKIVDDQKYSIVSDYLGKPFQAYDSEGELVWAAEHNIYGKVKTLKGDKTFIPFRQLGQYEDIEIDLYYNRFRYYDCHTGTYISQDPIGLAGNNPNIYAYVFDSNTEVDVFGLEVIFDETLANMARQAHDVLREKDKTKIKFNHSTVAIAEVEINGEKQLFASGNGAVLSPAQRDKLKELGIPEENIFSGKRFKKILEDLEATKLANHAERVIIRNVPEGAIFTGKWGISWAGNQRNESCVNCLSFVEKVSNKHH

d38_MGYPDa829 = biological target: T3, d38_MGYPDa829 (unidentified)
T3 chain: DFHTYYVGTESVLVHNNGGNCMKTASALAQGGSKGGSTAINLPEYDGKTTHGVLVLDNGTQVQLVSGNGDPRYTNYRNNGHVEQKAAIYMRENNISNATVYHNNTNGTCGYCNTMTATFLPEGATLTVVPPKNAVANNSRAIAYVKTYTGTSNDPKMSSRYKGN

RaDa01 = biological target: T4, RaDa01 (Ruminococcus sp.)
T4 chain: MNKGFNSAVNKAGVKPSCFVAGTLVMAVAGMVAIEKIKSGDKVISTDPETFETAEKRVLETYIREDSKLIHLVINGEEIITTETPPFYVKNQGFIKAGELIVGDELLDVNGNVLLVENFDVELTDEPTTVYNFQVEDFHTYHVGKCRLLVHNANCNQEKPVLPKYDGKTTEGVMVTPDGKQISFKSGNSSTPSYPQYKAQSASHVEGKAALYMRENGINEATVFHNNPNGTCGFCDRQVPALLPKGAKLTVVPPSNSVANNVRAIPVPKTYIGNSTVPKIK

MGYPDa01 = MGYPDa01 (unidentified)
Chain of MGYPDa01 (unidentified) (chain, as listed by the source): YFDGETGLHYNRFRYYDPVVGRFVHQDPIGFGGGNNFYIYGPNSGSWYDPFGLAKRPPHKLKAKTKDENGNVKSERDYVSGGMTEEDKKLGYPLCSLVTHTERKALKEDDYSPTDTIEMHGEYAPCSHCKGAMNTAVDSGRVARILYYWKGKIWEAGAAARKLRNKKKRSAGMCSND

MGYPDa20 = biological target: T5, MGYPDa20 (unidentified)
T5 chain: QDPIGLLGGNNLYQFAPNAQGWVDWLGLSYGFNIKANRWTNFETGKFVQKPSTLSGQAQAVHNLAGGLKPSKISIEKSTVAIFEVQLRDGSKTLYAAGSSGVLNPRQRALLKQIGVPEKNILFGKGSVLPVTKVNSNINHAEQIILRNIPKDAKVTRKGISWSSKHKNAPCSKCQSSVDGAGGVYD

CrDa01 = biological target: T6, CrDa01 (Clostridium roseum)
T6 chain: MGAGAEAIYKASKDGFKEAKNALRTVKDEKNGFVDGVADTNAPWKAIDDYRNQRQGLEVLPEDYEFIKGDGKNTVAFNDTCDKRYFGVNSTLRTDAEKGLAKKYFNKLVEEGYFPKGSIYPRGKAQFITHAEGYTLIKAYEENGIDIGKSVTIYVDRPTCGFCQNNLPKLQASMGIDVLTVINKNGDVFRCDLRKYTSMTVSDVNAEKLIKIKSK

AvDa02 = biological target: T7, AvDa02 (Actinomyces viscosus)
T7 chain: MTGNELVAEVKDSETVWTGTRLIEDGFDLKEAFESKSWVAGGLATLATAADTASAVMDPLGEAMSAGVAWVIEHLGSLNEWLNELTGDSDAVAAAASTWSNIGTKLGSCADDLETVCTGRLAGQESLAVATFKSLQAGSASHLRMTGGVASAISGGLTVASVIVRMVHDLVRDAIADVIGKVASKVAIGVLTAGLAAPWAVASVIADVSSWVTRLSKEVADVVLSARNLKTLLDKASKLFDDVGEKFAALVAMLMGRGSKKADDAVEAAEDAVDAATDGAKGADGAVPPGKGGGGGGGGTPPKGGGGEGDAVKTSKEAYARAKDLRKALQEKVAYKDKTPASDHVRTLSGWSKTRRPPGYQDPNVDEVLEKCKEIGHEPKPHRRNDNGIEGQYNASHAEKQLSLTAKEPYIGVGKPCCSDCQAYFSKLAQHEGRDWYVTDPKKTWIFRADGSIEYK

| Binder | activity (LbsDa01) | activity (MGYPDa23) | activity (d38_MGYPDa829) | activity (RaDa01) | activity (MGYPDa01) | activity (MGYPDa20) | activity (CrDa01) | activity (AvDa02) |
| --- | --- | --- | --- | --- | --- | --- | --- | --- |
| 40 bp 5caC oligo (dsDNA, 5caC at all four C of the listed strand sites) DNA 1: AAATTTAATTATAAAACGATCGACGACGAAATAATAAAAA DNA 2: TTTTTATTATTTCGTCGTCGATCGTTTTATAATTAAATTT | 0.1 fraction deaminated | 0.02 fraction deaminated | 0.1 fraction deaminated | 0.47 fraction deaminated | – | – | – | – |
| 40 bp control C oligo (dsDNA) DNA 1: AAATTTAATTATAAAACGATCGACGACGAAATAATAAAAA DNA 2: TTTTTATTATTTCGTCGTCGATCGTTTTATAATTAAATTT | 0.92 fraction deaminated | 0.97 fraction deaminated | 0.88 fraction deaminated | 0.98 fraction deaminated | 0.12 fraction deaminated | 0.59 fraction deaminated | 0.98 fraction deaminated | – |
| 40 bp 5fC oligo (dsDNA, 5fC at all four C of the listed strand sites) DNA 1: AAATTTAATTATAAAACGATCGACGACGAAATAATAAAAA DNA 2: TTTTTATTATTTCGTCGTCGATCGTTTTATAATTAAATTT | 0.14 fraction deaminated | 0.23 fraction deaminated | 0.12 fraction deaminated | 0.66 fraction deaminated | – | – | 0.09 fraction deaminated | 0.08 fraction deaminated |
